Test results: the nanobody polyreactivity screen of Harvey et al. (2022)

Assay: yeast display, Sf9 membrane polyspecificity reagent, FACS + sequencing; frameworks hold sequencing errors
Method in brief: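 In a synthetic yeast display library (Saccharomyces cerevisiae BJ5465), nanobody expression was induced with galactose for 36–48 hours. FACS gates were set low and high (top ~1%) using anti-HA fluorescence for expression and streptavidin fluorescence for binding of the Sf9 membrane reagent. Each polyreactivity label is drawn from the gate of origin.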

Row | Sequence | polyreactivity (PSR sort gate)
1 | QVQLVESGGGLVQAGGSLRLSCAASGRTLENYAMGWSRQAPGKERELVATINGRSGNTYYADSVKGRFTLSRDNAKNTVYLQMNSLKPEDTAVYYCNAYYEGYYTVGYDYWGQGTQVTVSS | high polyreactivity
2 | QVQLVESGGGLVQAGGSIRLSCAASGFNFRWYAMGWYRQAPGKERELVAAIRSGGSTNYADSVKGRFTIARDNAKNTVSLQMNSLKPEDRAVYYCAAERTSYYYSNDYWGQGTQVTVSS | high polyreactivity
3 | QVQLVESGGGLVQAGGSLRLSCAASGSTFVVNAMGWYRQAPGKEREFVAAITWNGGSTYADSVKGRFTISRDNAKNTVYLQMNSLKPEDTAVYYCSADLSYWDDFDYWGQGTQVTVSS | low polyreactivity
4 | QVQLVESGGGLVQAGGSLRLSCAAYGSTFVWNTMGWYLQAPGKERELVAAINWSGTRTYYADSVKGRFTISRDNAKNTVYLQMNSLKPEDTAVYYCAAESYYPAGIRGYWGQGTQVTVSS | high polyreactivity
5 | QVQLVESGGGLVQAGGSLRLSCAASGRIFRYYAMGWYRQAPGKERELVAAITRGGSTNYADSVKGRFTISRDNAKNTVYLLMNSLKPEVTAVDYCNAPYWKSRFRAYYHWGQGTQVTVSS | high polyreactivity
6 | QVQLVESGGGLVQAGGSLRLSCAASGFTFSFYAMGWYRQAPGKERELVAAITWSGGNTYYADSVKGRFTISRDNAKNTVDLQMNSLKPEDTAVYYCAARGPASVRYYYWGQGTQVTVSS | high polyreactivity
7 | QVQLVESGVGLVQAGGSLRLSCAASGSTFYSNAMGWNRQAPGKERELVASISWSSGSTYYADSVKGRFTISRDNAKNTVYLQMNSLKPEDTAVYYCATDAGGPYRFGYWGQGTQVTVSS | low polyreactivity
8 | QVQLVESGAGLVQAGGSLRLTCAASGSTFLDMGLYRQAPAKEREFVASISLSGGSTYYADSVKGRFTISRDNAKNTVYLQMNSLKPEDTAVYYCNAEAWWYFWFDYWGQGTQVTVSS | low polyreactivity
9 | QVQLVESGGGLVQAGGSLRLSCAASGRTIYQNAMGWYRQAPGKEREFVAAITGGTGSTHYADSVKGRFTISRDNAKITVYLQMNSLKPEDSAVYYCATRYLFGFSRYDYWGQGTQVTVSS | low polyreactivity
10 | QVQLVESGGGLVQAGGSLRLSCAASGSIFHPYTMGWYRQAPGKERELVAAISWSGGNTNYADSVKGRFTISRDNAKNTVYLQMNSLKPDDTAVYYCIKATNLSGGYDSWGLGTQVTVSS | low polyreactivity
11 | QVQLVESGGGLVQAGGSLRLSCAASGSISFINAIGWYRQATGKERELVAAISGSGGSTYYADSVKGRFTISRDNAKNTVFLQMNSLKPEDTAVYYCAVPLPSRIYGYWGQGTQVTVSS | low polyreactivity
12 | QVQLVESGGGLLQAGGSLRLSCAASGSIFGYNAMGWYRQAPGKERELVAAISYSGGSTYYADSVKGRFPISRDNAKNTVYLQMNSLKPEDTAVYYCAKAGRYANLPYGYWGQGTQVTVSS | high polyreactivity
13 | QVQLVESGGGLVHAGGSLRLSCAASGRLFYPYAMGWYRQAPGKERELVAAITYITGSTYADSVKGRFTISRDNAKNTVYLQMNSLKPEDTAVYYCAADYESGDYWGQGTQVTVSS | low polyreactivity
14 | QFHLVESGGGLVQAGGSLRLSCAASGSTFWFNVMGWYRQAPGKEREFVAAISSIGGSTYYADSVKGRFTISRDNAKNTVYLQMNSMKPEDTAVYYCAVEVVRVYRYDYWGQGTQVTVTS | low polyreactivity
15 | QVQLVESGGGIVQAGGSLRLSCAASGSILSYYAMGGYRQAPGNEREFVAAISWGTITNYADSVKGRFTISRDNAKKTVYLQMNSLKPEDTAVYYCNADPYGWYSSDYDYWGQGTQVTVSS | low polyreactivity
16 | QVQLVESGGGLVQAGGSLRLSCAASGRTFGDYAMGWYRQAPGKERELVAAITIGGSTYYADSVKGRFTISRDNAKNTVYLQMNSLKPEDTAVYYCAATTYSIPSRYDSWGQGTQVNVSS | low polyreactivity

Row | Sequence | polyreactivity (PSR sort gate)
17 | QVQLVESRGGFVQARCSLRLSCDASGRIFYYYGMGWYRQAPGKERELVAAITRNTGRTYYADSVKGRFTISRDNAKNTVYLQMNSLKPEDSSVYYFARDRRTWSPYTRAYRRNDYWVQGTQVTVSS | high polyreactivity
18 | QVQLVESGGGLVQAGGSLRLSCAASGRTFYYYAMGWYRQAPGKEMELGAAIRRSGSSTYYADSVKGRFTISRDNAKNTVYLQMNSLKPEDTAVYYCAAAVYQRARYYWGQGTQVTVSS | high polyreactivity
19 | QVQLVDSGGGLVQAGGSLRLRCAASGLTFYTYAMGWYRQAPGKERELVAANRWRGGRTYYADSVKGRFTISRDNAKNTVYLQMNSLKPDDTAVYYCAADYSTLYKYDYWGQGTQVTVSS | low polyreactivity
20 | QVQLVESGGGLVQAGGSLRLSCAASGSIFYPYAMGWYRQAPGKERELVAGISRSGASTYYADSVKGRFTISRDNAKNTVYLQMNSLKPEDTAVYYCAADDWTRNYWGQGTEVTVSS | low polyreactivity
21 | QVQLVESGGGLVQAGGSLRLSCAASGSIFQYYAMGWYRQAPGKERELVAAISSAGSTKYADSVKGRFTISRDNAKNTVYLQMNSLKPEDTAVYYCAARDPSRHARRAYDYWGQGTQVTVSS | low polyreactivity
22 | QVQLVESVGGLVQAGGSLRLSCAASGSIFYQYAMGWYRQAPGKERELVAAISRSGGSTYYADSVKGRFTISRDIAKNTVYLQMNSLKPEDTAVYYCAADQKSLRMYYWGQGTQVTVSS | high polyreactivity
23 | QVQLVESWGGLVQAGGSLRLSCAASGRTFGKYAMGWYRQAPGKERELVASITFSSGSTYYADSVKGRFTISRDNAKNTVYLQMNSLKPEDTAVYYCAKRGWGIYDYWGQGTQVTVSS | low polyreactivity
24 | QVQLVESGGGLVQAGGSLRLSCAASGSIFWKNVMGWYRHAPGKERELVAGISQNGGSTTYADSVKGRFTISRDNAKNTVYLQMNSLKPEDTAVYYCAAKRYGPFKYGYWGQGTQVTVSS | high polyreactivity
25 | QVQLVESGGGLVQAGGSLRLSCAASGSTLNYYAMGWYRQAPGKEWELVAAITWSGGSTSYADSVKGRFTISRDNAKNTVYLQMNSLKPEDTAVYYCATDFPTVQLYDTDWLSSDMGYWGQGTQVTVSS | low polyreactivity
26 | QVQLVESGGGLVQAGGSLRISCAASGSTFYRNAMGWYRQAPGKERELVARISSRGGRTSYADSVKGRFTISRDNAKNNVYFQMNSLKPEDTAVYYCAADYYVNRIQRYDYWGQGTQVTVSS | high polyreactivity
27 | QVQLVESGGGLVQAGGSLRLSCAASGIIFSFYAMGWYRQAPGKERELVAAISRSGGSTYYADSVKGRFTISRDNAKNTVYLQMNSLKPEDTAVYYCNADNGASYYYRRYDSWGQGTQVTVSS | high polyreactivity
28 | QVQLVESGGGLVQAGGSHRLSCAASGRTFWKYVMGWYRQAPGTERELVAVISRPAGSTYYADSVKGRFTISRHNEKNTVYLQMNSLKPEDTAVYYCAKRPKNKPVLGDYDHWGQGTQVTVSS | low polyreactivity
29 | QVQLVESGGGLVQAGGSLRLSCAASGYIFSGYAMGWYRQAPGKERELVAAISSSGGRTYYADSVKGRFTISRDNAKNTVYLQMNSLKPEDTAVYYCAADAVYYHFDYWGQGTQVTVSS | high polyreactivity
30 | QGQLVESGGGLVQAGGSLRLRSAASGRTFNYYAMGWYRQAHGKERELVATSSWSGVSTRYADSVKGRFTISRDNAKNTVYLEMNSLNPEDTAVYYCNAGYSKRSFYSAYGYWGEGTQVTVSS | high polyreactivity
31 | QVQLVESVGGLVQAGGSLRLSCAASGSTFTDYDMGWYRQAPGKERELVADISSGGSTYYADSVKGRFTISRDNAKNTVYLQMNSLKPEDTAVYYCNTDLRLVYRTKGFISWGYDYWGQGTQVTVSS | low polyreactivity
32 | QVQLVESGGGLVQAGGSLRLSCAASGRTFAYYAMGWYKQAPGKERELVAAISWSGGSTYYADSVKGRFTISRDNAKYTVYLQMNSLKPEDTAVYYCNTLGGTEYGYWGQGTQVTVSS | high polyreactivity
